Source: patent US20220119552A1

Key:
[1] = molecular target: CD3 on human T cells (human) (UniProt P07766); experiment: flow cytometry on T cells coated with 1 µg/mL antibody
[2] = molecular target: Carcinoembryonic antigen (CEA) on CEA positive cells (UniProt P06731); experiment: cell-based or functional assay
Chain of UniProt P06731 (P06731 35-702): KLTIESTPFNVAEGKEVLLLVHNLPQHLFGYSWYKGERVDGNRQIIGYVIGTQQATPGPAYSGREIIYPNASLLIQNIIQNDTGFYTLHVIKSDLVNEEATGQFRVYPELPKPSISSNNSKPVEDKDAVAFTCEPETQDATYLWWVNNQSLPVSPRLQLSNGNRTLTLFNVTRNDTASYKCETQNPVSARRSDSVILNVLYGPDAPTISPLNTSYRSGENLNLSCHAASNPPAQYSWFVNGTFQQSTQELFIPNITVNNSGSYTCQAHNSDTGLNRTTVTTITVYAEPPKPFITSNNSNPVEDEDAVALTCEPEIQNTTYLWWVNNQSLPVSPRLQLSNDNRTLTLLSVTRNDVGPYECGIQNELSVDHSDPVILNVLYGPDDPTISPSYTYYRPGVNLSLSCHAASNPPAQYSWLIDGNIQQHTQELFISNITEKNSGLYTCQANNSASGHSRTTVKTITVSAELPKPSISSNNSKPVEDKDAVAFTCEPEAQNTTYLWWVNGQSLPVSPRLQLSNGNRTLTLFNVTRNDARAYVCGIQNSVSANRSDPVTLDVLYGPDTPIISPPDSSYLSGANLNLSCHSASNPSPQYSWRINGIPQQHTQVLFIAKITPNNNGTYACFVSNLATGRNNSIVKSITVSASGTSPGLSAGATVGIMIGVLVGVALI

Chain of UniProt P07766 (P07766 23-207, chain 1 of 3): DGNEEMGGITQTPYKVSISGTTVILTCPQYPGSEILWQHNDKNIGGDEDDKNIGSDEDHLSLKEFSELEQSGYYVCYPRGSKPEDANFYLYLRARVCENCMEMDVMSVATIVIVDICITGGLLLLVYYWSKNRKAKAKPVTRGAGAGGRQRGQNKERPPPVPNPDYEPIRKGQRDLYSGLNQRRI
Chain of UniProt P07766 (P04234 22-171, chain 2 of 3, further chain): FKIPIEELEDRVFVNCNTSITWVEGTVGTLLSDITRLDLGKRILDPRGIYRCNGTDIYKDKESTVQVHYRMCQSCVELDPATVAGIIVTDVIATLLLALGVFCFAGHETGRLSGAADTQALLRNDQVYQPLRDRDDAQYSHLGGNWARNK
Chain of UniProt P07766 (P09693 23-182, chain 3 of 3, further chain): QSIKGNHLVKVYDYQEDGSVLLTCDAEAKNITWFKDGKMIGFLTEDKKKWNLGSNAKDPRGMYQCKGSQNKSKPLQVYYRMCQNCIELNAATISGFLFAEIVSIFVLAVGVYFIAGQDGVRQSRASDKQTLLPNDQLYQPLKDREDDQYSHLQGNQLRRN

Substance	percent of cells labelled [1] [%]	redirected cell lysis, T-cells coated with preformed dbBiTEs, E:T 10:1 [2] [%]	redirected cell lysis, on-cell (in situ) generated dbBiTE coated T-cells, E:T 10:1 [2] [%]
DBCO-hOKT3 (humanized anti-human CD3 antibody hOKT3 conjugated to DBCO)	> 90	–	–
dbBiTE (dual specific bivalent bispecific T-cell engaging antibody: DBCO-hOKT3 clicked to azide-M5A) (bispecific antibody)	–	90	60
